The text below walks through data of the domain aggregation screens of Martell et al. (2025).

The series is described as follows: soluble fraction after stress (log2 fold change); higher = more stays soluble; pooled small domains, quantitative proteomics. The following applies: stress: pH 4. The method, boiled down: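 Values are on a log2 scale, where higher means more of the domain stayed soluble after pH 4 stress. They are fold changes in the soluble amount of each domain from pooled custom libraries, measured by high-throughput quantitative proteomics. The fold change is taken to reflect aggregation propensity.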
Take “HMLKLEDIKKDAQVKGIVDGQIVRIVTVEPIGDHALTVYYKDHQGQFAERMLFRSDELNLELATA”: the “soluble fraction (log2)” value was -0.64.

With “HMLKLSGEESQQLALRLREELARRRITRQGLADAAKISISTLEQVLAGRRTFTLATIVRLEEGLGIKLL”, the “soluble fraction (log2)” value was found to be 0.387.

“HMLKNKSTGNINETKAILELALNHSHFKVFDNRDMTVTFKNLATQFTTMQRILVQMFFPLPAGVELIIE”: the “soluble fraction (log2)” value was found to be 0.268.

Regarding “HMLKNYATPEQRAQLDMLKDKGIIGENELMQLGKYPSQDKASEVLENHADAVKMLDSDEISNRAEAIRSHD”, the “soluble fraction (log2)” value turned out to be 0.22.

As for “HMLKPQQTQRIYAMAARLGVLESGNKNDMLHTIVYRLTQKESIRSLNENEYKTVVSELAERLKL”, the “soluble fraction (log2)” value is -0.917.

For “HMLKQLGRQEGRQEGAVDALRTVLALQIEQRFGPLDPTVQALIVAADIDALQRALSRVAVVSDLGAVFPP”, the “soluble fraction (log2)” value is -0.862.

For “HMLKRLTVEFSAEMPKKMTSEQKEELASVLSEDPRPAYQNDENREYGLDYGEFSVKFKVKDGVLTVTSVTE”, the “soluble fraction (log2)” value amounted to 0.226.

For the sequence “HMLLNLSPIETQVLRLIQQDKKVTYESIGKELTIGQTKVYKVLGHLKELNVIERIGGRTYGHWHILL”, the “soluble fraction (log2)” value was -0.599.

“HMLLNPFERLTERELEIADLYAKGYGNLEIANFLSIKQNTVSTYKKRIFEKLGIDNLVELIELIKNY”: the “soluble fraction (log2)” value was -0.839.

As for “HMLLQTRQRHEALAALGYFKGDVAAAWGPASEEALRAAQAAFGITVDGKWGPQTEDAIQGALQV”, the “soluble fraction (log2)” value is -0.701.

In the case of “HMLLREKLESVLPFISVSALAKTYFKRSPQWFYQRLNGSIVNGKPIRFNDAELKTLAGALTDIGKKISQAA”, the “soluble fraction (log2)” value was 0.157.

As to “HMLLSEPSVLKFNDDNSYEIVSGFLTEYKDKIVKIERRYKKATVKITVAGEEKEIKVSFVEDTE”, the “soluble fraction (log2)” value is -1.13.

Regarding “HMLLSTHVVVAKEDVQIGTRLQPAMLQVVDWPSASPLKNPLTSIEQATDRVVNMPLVKGEPISMSKLAAKG”, the “soluble fraction (log2)” value turned out to be 0.0815.

Regarding “HMLLTASNYFKETKGINFSELPEALQKGHSFVIKSTENGTNWNAYSTSQNIQRVIDAYFSKLDEYLEKNQ”, the “soluble fraction (log2)” value is -0.202.

For “HMLLTHEEQIVKRGWQAPVGPFAILDSRAEAMHGDLEMLRGDREAAEQHFRRAWQIIGPIVEQ”, the “soluble fraction (log2)” value is 0.0572.

Consider “HMLMKILTDALEKMSPEELKELAEATGVKNTSSITPETMVGVFQAVFRVGGFKSYQLTLIIVNAVLKA”, for which the “soluble fraction (log2)” value is -0.398.

“HMLMRKAEVGVESLNLRHGPGTQYKVLEILPGGKSLHYLAEPRRGWVRVTTEEGTTGWTFLKFLKPE”: the “soluble fraction (log2)” value is -0.0205.

As to “HMLNENNHGEWSIRMSNGLVVRLGRDELNRSLRRSIMAYAGLAPNYRSSIEYIDARYLGGVALKTF”, the “soluble fraction (log2)” value is -0.159.

For the sequence “HMLNKRQAEILAEVSRLKEITPSELYKLQPNVSSRTLRRDMDVLVNKGLVSQDGSTKSTKYTYL”, the “soluble fraction (log2)” value came out at 0.102.

As to “HMLNMTLGDRIRSRREELRMSQEELATRLGYKSRSTIAKIESGENDLTQSKIVAFAEALSTTARWLLDY”, the “soluble fraction (log2)” value was 0.0651.

Take “HMLNVNDVIARNVRAARERKKLTLDGAAELTGVSRSMLAQIEKGEVNPTISVVWKIANGFKVSFTSLVEPQ”: the “soluble fraction (log2)” value is -0.0104.

Regarding “HMLPAGSDAILRYLSSGAVKGIGVATAARIVEKFGDETLRILEEEPGRLAEIKGITAAKAKAIGEAFAGQ”, the “soluble fraction (log2)” value was -0.143.

On to “HMLPELIVTTKKGVTVTVTNGVITYSATSNGKATFTVPNYGKWTVSATINGTVISKVVDVTEAKQIPVLLG”, for which the “soluble fraction (log2)” value is -0.318.

With “HMLPERIQTIVALIGHGRAMDLVREFGGQEIKFPAQEGNDTWAALVEVIGEAATRKLAAVFGGGQAPPVYI”, the “soluble fraction (log2)” value is -0.593.

Consider “HMLPGVPVVAGKTQSAATRILKAAGYAVSVVREEAFDGVTGTVLRTSPEAGSPLAPGSRVTLVVLQVV”, for which the “soluble fraction (log2)” value is -0.114.

As for “HMLPGWMETKFTANVSENTKNRTLEEHVLKMLNNKESAAEFIIFLHEKMMSVSGQVFQLDSR”, the “soluble fraction (log2)” value was -0.0998.

As for “HMLPIGSSREQVISSLNKMHQDYKEEGNFIYAGYFKQGLPLVPSPRISIALQFNETAHLEKIDATLNYV”, the “soluble fraction (log2)” value was -0.467.

In the case of “HMLPKLAEEYAIMEIRGKGENLTAKLINKGGDSFMVRNGTVLQTGHRIDEITQTYVRAEINGMKDYLYFA”, the “soluble fraction (log2)” value is -1.44.

“HMLPLLAFDEKLNRLGYGGGFYDRTLASLAHKGNTITAIGIAYESQKMDKVPTGYFDRPLDGVLTPSGLIM”: the “soluble fraction (log2)” value was -0.0764.

Regarding “HMLPNLWVMGPGDHLWRVAEVAMTKHLGRPVANHEIDGYWRRLVALNRESLIDPDNPDLVFAGQVIELPPF”, the “soluble fraction (log2)” value was -2.2.

For “HMLPQGKGTAMWLADHLAAASVTLDAGARKLLEDTLGEDMSRLPGVLRVLEATFGSDAGRLSAEDIEPFL”, the “soluble fraction (log2)” value is -1.05.

As for “HMLPRNKRIEIALTYIYGLGRHAATVVLKHANISPDKRTDDLDENDVRKLRDAIDANFRVEGDLRR”, the “soluble fraction (log2)” value was -0.0555.

With “HMLPTVSITGHIFIRSGSPLNRIFVGEKIYHVGDHIDRDWVIESIGIDTLTIRSGTLSTQLPL”, the “soluble fraction (log2)” value was determined as 0.034.

As for “HMLPVFNYQVYRTHGLIYVYAKDNDSFDQIARSMGFKAKQLMKFNEVPEDFPLQAGDIVYLEKKKK”, the “soluble fraction (log2)” value was -0.368.

Take “HMLPVLEIGTMIRIIRQPHFGTIARVVALPEELTKVESETLVRILDAEFDDGTRVRIPRANVEVIE”: the “soluble fraction (log2)” value was -1.37.

Turning to “HMLPYGDRRRHTDNTISRIRELAAALDDSGIADRLNQDGYVTPEGKPFTYAGVRWIRYKYDISGPYERN”, the “soluble fraction (log2)” value was -0.364.

Take “HMLQKVELSDNEKFIFDSLQKEQKMALLRLKELVNLSNKAWDVSVKNLTKQGLVKVTKIDEELLIEI”: the “soluble fraction (log2)” value was -1.24.

With “HMLQPQMKKFLNYESARNKMRPFGLSTRKEWRLFVDEGNRPADIPGDPYKKYKNKGWISWPHFLGK”, the “soluble fraction (log2)” value was 0.0515.

For the sequence “HMLRDTTLLHIDSIVRDGSTAMANITVRDEGTDLEFPLQLRMERGDMGWQVVRIVNYRAYLEAVQKA”, the “soluble fraction (log2)” value is -0.59.

As for “HMLRGKNALMSQLDQIQGIGPKRKRALFNHFLTLDAIKQADVETLRQAPGMNLPAAEQVYRHFHM”, the “soluble fraction (log2)” value came out at 0.144.

As to “HMLRIIDYNRVVKDLNGLTPEQLLEKLAESFTVEDKGTEEYRPTELHNFSMYLGGHWYSLTAKPGTYDDND”, the “soluble fraction (log2)” value was -0.926.

Turning to “HMLRMTRNRQKLVEVLMESGRPLSADEIREAAGFASTDLVTVYRNLEAFQSAGLLQRIPLENGSQLFELT”, the “soluble fraction (log2)” value is -0.269.

Turning to “HMLRNDEAVMLGRRLLNKHLQAFSVQIKDISHQRIHDLLDELELESLDHLLDDIGLGNRSVFLVAQKLLQ”, the “soluble fraction (log2)” value was -1.25.

As to “HMLRQRVFRIIQNNINSKNYFVYTKQILAELAGISMRSLNRTLSELQNDRLIIVDSGTIRLFT”, the “soluble fraction (log2)” value was -0.824.

Consider “HMLRVGASVTANGKYWYDSYGSKPFGTANNLSTTVTRIVPGNPYPIHIGSYGWLQESQIQIT”, for which the “soluble fraction (log2)” value was 0.204.

“HMLSDADLAAFREVFDLVDKDKSGAIEMEEVEELTKLLGLDLTRDEVELLVREIDKDGNGEVDFEEFLLVM”: the “soluble fraction (log2)” value was -0.115.

As to “HMLSDHGLNDRQIMVIAGLMNGGTVTVRSIESQYGVSLNTARADVKMLVDAGLLTETGREVNMKVYSWSGK”, the “soluble fraction (log2)” value was -0.22.

For the sequence “HMLSDSDTLRDLYLSEQIWNVGDLIRVKGKNDDTHPSWEIIRRGTNYITAIDENYKSHKVWLHDIDI”, the “soluble fraction (log2)” value was -1.4.

Turning to “HMLSEKELLELLNRAKSNYNGITKKGIEAIALKYQGYSNVEIANLYHVKANHISAWISRARSRLKADY”, the “soluble fraction (log2)” value was -0.0621.

For “HMLSNLYAVLGVGRRATPDEITAAFDAWNARADAGEPIDDPLWERVRYAWDVLSSPSRRDLYDSLVDDATG”, the “soluble fraction (log2)” value is -2.25.

Consider “HMLSSREEKILNYLNEHQIITRKKAQELLETSQSTAGRVLKIMVDNGLIVQYGGSRSIWYELIK”, for which the “soluble fraction (log2)” value was -0.269.

With “HMLSTGIIIGDNVALRKTASSNGGIITRLDEGTVVKILASNVNAEWYQVEAGTKTGYVNRLYVNID”, the “soluble fraction (log2)” value was -0.345.

Take “HMLSTGQLIRYYRKRAGMTQAELAEEVEMSEPGIRNYELGNRTPSKAQLSAIARGLGIEPEALI”: the “soluble fraction (log2)” value was -0.0764.

As to “HMLSVKEQTYQIIKEKILNQEYPAGARININELAEELGISNSPIREALSLLEQQGLVISNRSSGATVT”, the “soluble fraction (log2)” value was -0.772.

For “HMLSVLKNVDVNSLSDDKIKTYWQQIQKSGYTLDEVEVLAEAQGISPLKIAAFKRRVQSLQQSLQT”, the “soluble fraction (log2)” value is -0.018.

In the case of “HMLSYDDTVVIGRNLLENAMKQKNIALEQLTDEVLARLAKELQVESVEAMYAGIGSGKRPSSFIINRLEAH”, the “soluble fraction (log2)” value was -0.454.

As for “HMLSYFKIIKNGLVREGPASYYKIAENLEIGTIVQAFEKHDDWYLIKTHSGRIGWIVASDVTPQV”, the “soluble fraction (log2)” value came to 0.36.

In the case of “HMLTAHEAILKELRKMLLTGVLSPGEAVRPEIIGESFGVSAVPVREALRILEGEGQVLNRPHKGYVVT”, the “soluble fraction (log2)” value was -0.482.

Turning to “HMLTANPEEVVNRLTSAGEVGVRPLLDVDDPINAISTLLAIREDVYKQFAQFDTVGKSPSEIAHEIDDFL”, the “soluble fraction (log2)” value is -0.162.

In the case of “HMLTEERLQIITDTVNSRSSVTIAELSRILDVSPSTVKRDLNILAEAGKITKVRGGAIALGE”, the “soluble fraction (log2)” value turned out to be 0.164.

Turning to “HMLTGDVDRYKDFFIALEKTSPVPIGFEKIIGGAHGYYHLEDKRIAIDEGMSELQTLKTAIHEIAHAKLHD”, the “soluble fraction (log2)” value is -0.123.

On to “HMLTGNTAKLFAHLVEVMNPKEFVKINRQTVIVEAGIPRGSVGAAIAKLLETGHLIANASGAYKLT”, for which the “soluble fraction (log2)” value is 0.0211.

Take “HMLTIEEYLTQLKKLMKDRDAATVRDALSDAEEHLRNAMAGEDPSRLDGIIEEYGSPEEIAAAYKIMEEHT”: the “soluble fraction (log2)” value was -0.715.

On to “HMLTIQNYFNQVKNIDWEQVPAALSKGHQLVEGASQNNWSAYHSNANIQRVVEAYFQKLNDYLEKN”, for which the “soluble fraction (log2)” value is -0.168.

Consider “HMLTKGDRQSIRDSIIYMVGNAPRTLDYIVAESRYSEEDVIEAVRSLLSSHILSIDDSDMISLTRK”, for which the “soluble fraction (log2)” value is -0.362.

For the sequence “HMLTNNYKNDKALRFAKNHGIHESNILKLVSLYENAPEKGFNAQSIAELLGITPRSASRILVKLLQHNLIR”, the “soluble fraction (log2)” value is 0.381.

For the sequence “HMLTPSRVLPYLFEDSFFIDTLSLEKDQVVGFLEYIDERLPPQDLMNKSKEFELIDYLINESEAYLSQ”, the “soluble fraction (log2)” value is -0.311.

In the case of “HMLTQEEITRRRGEILTAAMGVILRKGFLETSMREIAEAAGVGKSTLYDYFPSKDEIMIAYVVD”, the “soluble fraction (log2)” value was -0.869.
